Assay results as given in patent publication US20090004163, “METHOD OF ENHANCING PROLIFERATION AND/OR HEMATOPOIETIC DIFFERENTIATION OF STEM CELLS” (THE CHILDREN'S MEDICAL CENTER CORPORATION, published 2009).

Molecular target: Cdx4 F170L (kggtl240) (Danio rerio, UniProt A8KBT9 A8KBT9:1-270, F170L)
Assay: EMSA; mutation prevents binding to cdx4 consensus site
Conditions: tags: TNT SP6 IVT (Promega)

Chain of Cdx4 F170L (kggtl240) (A8KBT9 entry or part of it F170L | F170L F170L, one chain of several): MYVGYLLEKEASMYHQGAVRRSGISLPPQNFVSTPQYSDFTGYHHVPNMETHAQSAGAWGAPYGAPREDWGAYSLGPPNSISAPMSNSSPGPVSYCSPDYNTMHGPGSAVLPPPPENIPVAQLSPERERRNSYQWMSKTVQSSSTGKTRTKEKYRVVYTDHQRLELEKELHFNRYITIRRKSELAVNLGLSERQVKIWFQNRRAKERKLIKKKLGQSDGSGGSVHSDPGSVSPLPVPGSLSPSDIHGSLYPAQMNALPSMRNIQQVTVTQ

B1: consensus cdx binding site probe (dsDNA)
DNA 1: GAGAAATTTATATTGT
DNA 2: ACAATATAAATTTCTC
binding result: no binding
